Positions count from the first letter of the chain named.

The test concerns the target T1, human IL-12Rβ2 expressed on cells (human, UniProt Q99665 24-862).
T1 sequence: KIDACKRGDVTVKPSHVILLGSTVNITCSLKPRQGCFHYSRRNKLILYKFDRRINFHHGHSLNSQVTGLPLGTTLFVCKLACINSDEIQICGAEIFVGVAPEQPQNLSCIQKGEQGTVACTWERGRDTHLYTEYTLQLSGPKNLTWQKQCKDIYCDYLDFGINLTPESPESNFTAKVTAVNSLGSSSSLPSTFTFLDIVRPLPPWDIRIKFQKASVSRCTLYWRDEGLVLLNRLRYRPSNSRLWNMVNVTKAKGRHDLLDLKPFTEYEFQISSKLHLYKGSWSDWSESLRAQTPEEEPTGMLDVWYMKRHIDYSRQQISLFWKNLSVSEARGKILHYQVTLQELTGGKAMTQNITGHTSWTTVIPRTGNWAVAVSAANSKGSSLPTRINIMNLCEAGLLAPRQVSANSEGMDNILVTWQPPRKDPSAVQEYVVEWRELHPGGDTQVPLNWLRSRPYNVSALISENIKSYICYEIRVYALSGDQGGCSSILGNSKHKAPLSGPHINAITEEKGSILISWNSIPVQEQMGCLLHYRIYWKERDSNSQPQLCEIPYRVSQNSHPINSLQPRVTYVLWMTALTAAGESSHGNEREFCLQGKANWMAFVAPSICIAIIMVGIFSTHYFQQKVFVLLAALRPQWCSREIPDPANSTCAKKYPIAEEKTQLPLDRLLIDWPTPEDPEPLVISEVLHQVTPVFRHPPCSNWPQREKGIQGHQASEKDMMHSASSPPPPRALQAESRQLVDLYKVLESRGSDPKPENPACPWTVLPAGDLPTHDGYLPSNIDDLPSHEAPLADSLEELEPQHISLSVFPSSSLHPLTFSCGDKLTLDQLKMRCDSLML
Description: cell-based or functional assay.

B1: 20400-FcDE (Fc fusion)
VHH-Fc chain: QVQLQESGGGLVQPGGSLRLSCAASGRTINAYIMGWFRQAPGKEREFVAAVSGSGGSTYYADSVKGRFTISRDNAKNTVNLQMDNLRSEDTDVYYCAATYESVYLQNPGQYDYWGQGTQVTVSSAPELLGGPDVFLFPPKPKDTLMISRTPEVTCVVVDVSHEDPEVKFNWYVDGVEVHNAKTKPREEQYNSTYRVVSVLTVLHQDWLNGKEYKCKVSNKALPAPEEKTISKAKGQPREPQVYTLPPSRDELTKNQVSLTCLVKGFYPSDIAVEWESNGQPENNYKTTPPVLDSDGSFFLYSKLTVDKSRWQQGNVFSCSVMHEALHNHYTQKSLSLSPGK
On to B1, for which the “% Specific Cell Lysis at 0.00125 ug/mL” value was 45.4% and the “% Specific Cell Lysis at 0.025 ug/mL” value amounted to 47.6%.

B2: 20401-FcDE (Fc fusion)
VHH-Fc chain: QVQLQESGGGLVQAGESLTLSCIASGVIKDYAMGWFRQAPGKEREFVAAISWSGVSIYYADSVKGRFTISRDNAKNTVYLQMNSLEPEDTAVYYCAGTEGAYTVAGGSTFGYDMDYWGKGTQVTVSSAPELLGGPDVFLFPPKPKDTLMISRTPEVTCVVVDVSHEDPEVKFNWYVDGVEVHNAKTKPREEQYNSTYRVVSVLTVLHQDWLNGKEYKCKVSNKALPAPEEKTISKAKGQPREPQVYTLPPSRDELTKNQVSLTCLVKGFYPSDIAVEWESNGQPENNYKTTPPVLDSDGSFFLYSKLTVDKSRWQQGNVFSCSVMHEALHNHYTQKSLSLSPGK
As for B2, the “% Specific Cell Lysis at 0.00125 ug/mL” value was 48%, the “% Specific Cell Lysis at 0.025 ug/mL” value is 47.5% and the “% Specific Cell Lysis at 10 ug/mL” value amounted to 64.9%.

B3: 20378-FcDE (Fc fusion)
VHH-Fc chain: QVQLQESGGGLVQAGDSLRLSCTASGHTFSRYTTIGWFRQAPGKDREFVAAIRWSGDITDYADAVKGRFTISRDNVKNTVYLQMNSLNPEDTAVYYCARGYSEYGVLSRNRGLYAYWGQGTQVTVSSAPELLGGPDVFLFPPKPKDTLMISRTPEVTCVVVDVSHEDPEVKFNWYVDGVEVHNAKTKPREEQYNSTYRVVSVLTVLHQDWLNGKEYKCKVSNKALPAPEEKTISKAKGQPREPQVYTLPPSRDELTKNQVSLTCLVKGFYPSDIAVEWESNGQPENNYKTTPPVLDSDGSFFLYSKLTVDKSRWQQGNVFSCSVMHEALHNHYTQKSLSLSPGK
As to B3, the “% Specific Cell Lysis at 0.00125 ug/mL” value stood at 52.4%.

B4: 20415-FcDE (Fc fusion)
VHH-Fc chain: QVQLQESGGGLVQPGGSLRLSCTASGSIVSIYNMDWYRQAPGNEREWVASITSSGDPYYDGSAKGRFTISRDNAKMTVYLQMNSLKPEDTAVYYCKVPTEKGNYWGQGTQVTVSSAPELLGGPDVFLFPPKPKDTLMISRTPEVTCVVVDVSHEDPEVKFNWYVDGVEVHNAKTKPREEQYNSTYRVVSVLTVLHQDWLNGKEYKCKVSNKALPAPEEKTISKAKGQPREPQVYTLPPSRDELTKNQVSLTCLVKGFYPSDIAVEWESNGQPENNYKTTPPVLDSDGSFFLYSKLTVDKSRWQQGNVFSCSVMHEALHNHYTQKSLSLSPGK
B4: the “% Specific Cell Lysis at 0.00125 ug/mL” value was 52.8%, the “% Specific Cell Lysis at 0.025 ug/mL” value is 61.1%, the “% Specific Cell Lysis at 0.5 ug/mL” value came out at 68.8% and the “% Specific Cell Lysis at 10 ug/mL” value was determined as 77.9%.

B5: 20422-FcDE (Fc fusion)
VHH-Fc chain: B4 VHH-Fc chain with K86E, Y94F
B5: the “% Specific Cell Lysis at 0.5 ug/mL” value amounted to 65.8% and the “% Specific Cell Lysis at 10 ug/mL” value is 67.3%.

B6: 20399-FcDE (Fc fusion)
VHH-Fc chain: QVQLQESGGGLVQPGGSLRLSCAASGSILRINLMGWYRQVPGKQRELVAEMSTGGSTTYVDSVEGRFTISRDNAKNTVYLQMNSLKPEDTAVYYCNAKAWQLGRLENDDWGQGTQVTVSSAPELLGGPDVFLFPPKPKDTLMISRTPEVTCVVVDVSHEDPEVKFNWYVDGVEVHNAKTKPREEQYNSTYRVVSVLTVLHQDWLNGKEYKCKVSNKALPAPEEKTISKAKGQPREPQVYTLPPSRDELTKNQVSLTCLVKGFYPSDIAVEWESNGQPENNYKTTPPVLDSDGSFFLYSKLTVDKSRWQQGNVFSCSVMHEALHNHYTQKSLSLSPGK
As for B6, the “% Specific Cell Lysis at 0.00125 ug/mL” value is 61%, the “% Specific Cell Lysis at 0.025 ug/mL” value is 63.1%, the “% Specific Cell Lysis at 0.5 ug/mL” value was 67.1% and the “% Specific Cell Lysis at 10 ug/mL” value was 72.4%.

B7: 20394-FcDE (Fc fusion)
VHH-Fc chain: QVQLQESGGGLVQAGDSLRLSCAASGRTFDTYIVGWFRQAPGKEREFVSALSWSDDTTIRDDSLRGRFTISRDNAKNTVYLLMNSLKPEDTAVYYCAAKAKPPAATWSSYRNREWYDYWGQGTQVTVSSAPELLGGPDVFLFPPKPKDTLMISRTPEVTCVVVDVSHEDPEVKFNWYVDGVEVHNAKTKPREEQYNSTYRVVSVLTVLHQDWLNGKEYKCKVSNKALPAPEEKTISKAKGQPREPQVYTLPPSRDELTKNQVSLTCLVKGFYPSDIAVEWESNGQPENNYKTTPPVLDSDGSFFLYSKLTVDKSRWQQGNVFSCSVMHEALHNHYTQKSLSLSPGK
In the case of B7, the “% Specific Cell Lysis at 0.00125 ug/mL” value came out at 54%, the “% Specific Cell Lysis at 0.025 ug/mL” value worked out at 52.1% and the “% Specific Cell Lysis at 10 ug/mL” value was found to be 66%.

B8: anti-IL-12Rβ2-VHH-FcDE clone 20407 (Fc fusion)
chain: QVQLQESGGGLVQPGGSLRLTCVASGFPFSTHAMSWVRQPPGKGREWISAINSGGDSTDYADSVMGRFTISRDNAKNTVYLQMNSLKSEDTAAYYCAKYEDCSDYDCSSRASWGQGTQVTVSSAPELLGGPDVFLFPPKPKDTLMISRTPEVTCVVVDVSHEDPEVKFNWYVDGVEVHNAKTKPREEQYNSTYRVVSVLTVLHQDWLNGKEYKCKVSNKALPAPEEKTISKAKGQPREPQVYTLPPSRDELTKNQVSLTCLVKGFYPSDIAVEWESNGQPENNYKTTPPVLDSDGSFFLYSKLTVDKSRWQQGNVFSCSVMHEALHNHYTQKSLSLSPGK
On to B8, for which the “% Specific Cell Lysis at 0.00125 ug/mL” value is 63.3%, the “% Specific Cell Lysis at 0.025 ug/mL” value amounted to 66.5%, the “% Specific Cell Lysis at 0.5 ug/mL” value is 71.7% and the “% Specific Cell Lysis at 10 ug/mL” value came out at 66.2%.

B9: 20373-FcDE (Fc fusion)
VHH-Fc chain: QVQLQESGGGLVQAGGSLVLSCAASGSAALIFLMSWYRQAPGKQRELVAEVSRGGSTTYADSVEGRFTISRDNAKNIVDLQMNSLKPEDTAVYYCKADQNYGDSLRSSWGQGTQVTVSSAPELLGGPDVFLFPPKPKDTLMISRTPEVTCVVVDVSHEDPEVKFNWYVDGVEVHNAKTKPREEQYNSTYRVVSVLTVLHQDWLNGKEYKCKVSNKALPAPEEKTISKAKGQPREPQVYTLPPSRDELTKNQVSLTCLVKGFYPSDIAVEWESNGQPENNYKTTPPVLDSDGSFFLYSKLTVDKSRWQQGNVFSCSVMHEALHNHYTQKSLSLSPGK
B9: the “% Specific Cell Lysis at 0.00125 ug/mL” value is 48.9%, the “% Specific Cell Lysis at 0.025 ug/mL” value came to 61.1%, the “% Specific Cell Lysis at 0.5 ug/mL” value turned out to be 67.4% and the “% Specific Cell Lysis at 10 ug/mL” value came out at 70.7%.

B10: 20421-FcDE (Fc fusion)
VHH-Fc chain: QVQLQESGGGLVQPGGSLRLSCAASGFTFSTYAMSWVRQAPGKGLEWVSAVNSGGLSTDYADSVEGRFTISRDDAKNMLFLQMNRLKPEDTARYYCAKYEDCSDYVCDRAGYWGQGTQVTVSSAPELLGGPDVFLFPPKPKDTLMISRTPEVTCVVVDVSHEDPEVKFNWYVDGVEVHNAKTKPREEQYNSTYRVVSVLTVLHQDWLNGKEYKCKVSNKALPAPEEKTISKAKGQPREPQVYTLPPSRDELTKNQVSLTCLVKGFYPSDIAVEWESNGQPENNYKTTPPVLDSDGSFFLYSKLTVDKSRWQQGNVFSCSVMHEALHNHYTQKSLSLSPGK
Turning to B10, the “% Specific Cell Lysis at 0.00125 ug/mL” value came to 61.3%, the “% Specific Cell Lysis at 0.025 ug/mL” value was determined as 65.9%, the “% Specific Cell Lysis at 0.5 ug/mL” value is 67.7% and the “% Specific Cell Lysis at 10 ug/mL” value stood at 69%.

B11: 20372-FcDE (Fc fusion)
VHH-Fc chain: QVQLQESGGGLVQAGGSLRLSCAASARTESMYAMAWFRQAPGKEREIVAGIIQSGGTTYISDYMKGRFSIDRGNAENTVYLQMDSLKPEDTAVYSCAAKVSSGTPSDIQISQSRWYDHWGQGTQVTVSSAPELLGGPDVFLFPPKPKDTLMISRTPEVTCVVVDVSHEDPEVKFNWYVDGVEVHNAKTKPREEQYNSTYRVVSVLTVLHQDWLNGKEYKCKVSNKALPAPEEKTISKAKGQPREPQVYTLPPSRDELTKNQVSLTCLVKGFYPSDIAVEWESNGQPENNYKTTPPVLDSDGSFFLYSKLTVDKSRWQQGNVFSCSVMHEALHNHYTQKSLSLSPGK
In the case of B11, the “% Specific Cell Lysis at 0.00125 ug/mL” value was 51.1%, the “% Specific Cell Lysis at 0.5 ug/mL” value was 66.9% and the “% Specific Cell Lysis at 10 ug/mL” value was found to be 69.9%.

For the origin of these results see patent US20260209362A1 (VIB VZW, published 2026).
